The record followed here is patent publication US20250002570A1 (Innovent, published 2025).

The target of test [1] is T1, human VEGF C (human, UniProt P49767 103-227, limits assumed).
T1 construct: also called hVEGFC; hVEGF C
T1 sequence (looked up): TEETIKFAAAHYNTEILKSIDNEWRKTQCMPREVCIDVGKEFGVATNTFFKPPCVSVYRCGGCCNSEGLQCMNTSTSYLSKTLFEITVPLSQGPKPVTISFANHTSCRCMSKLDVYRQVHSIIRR
Description: ELISA blocking: VEGFC-biotin captured on streptavidin plate; blocked receptor VEGFR2-Fc (0.2 ug/mL), detected with anti-human Fc-HRP, OD450. As for the experimental part: The blocking effects of the antibodies of the present invention on the binding of hVEGFC to a receptor KDR were determined.
(§1) SA (streptavidin) was diluted to 1 μg/mL, and 100 μL/well of SA was plated in a microplate at 4° C. overnight. The plate was washed 3 times with PBST and blocked with 3% BSA for 1.5 h. The plate was washed 3 times with PBST, 50 ng/ml of VEGFC-biotin (biotin-labeled human VEGF C) was added, and the plate was incubated for 1.5 h. 50 μL of antibody was incubated with VEGFR2-Fc (with a final concentration of 0.2 μg/mL, Beijing Sino Biological) or VEGFR3-Fc (with a final concentration of 0.2 μg/mL, Beijing Sino Biological) for 20 min in advance, and the mixture was added to the plate. The plate was washed 3 times with PBST, an anti-human FcHRP antibody (diluted in a ratio of 1:10000, BETHYL) was added, and then the plate was incubated for 30 min. The plate was washed 6 times with PBST, the color development was performed with TMB (SOLARBIO) for 5 min, and OD450 nm was read after stopping.
In general terms: An ELISA detects its analyte on a solid surface through an enzyme-linked reagent.

Test [2] has as its target T1, human VEGF C. Put plainly: ELISA blocking: VEGFC-biotin captured on streptavidin plate; blocked receptor VEGFR3-Fc (0.2 ug/mL), detected with anti-human Fc-HRP, OD450. As for the experimental part: as §1
The target in test [3] is T1, human VEGF C. Description: BLI (ForteBio), bivalent binding, 30 C. As for the experimental part:
(§2) The equilibrium dissociation constant (KD) for binding of the antibodies of the present invention to human VEGF C was determined by bio-layer interferometry (ForteBio). A ForteBio affinity assay of prior art was performed (Estep. P., et al., “High throughput solution Based measurement of antibody-antigen affinity and epitope binning”, MAbs, 2013.5(2): 270-8).
(§3) 100 μL of SD buffer, antibodies, and antigens (human VEGF C, Beijing Sino Biological) were added to a 96-well black polystyrene half-area microplate (Greiner, 675076). The sensors were arranged according to the positions of the samples. The instrument settings were as follows: the operation procedures were Baseline, Loading −1 nm, Baseline, Association, and Dissociation; the run time of each procedure was dependent on the rates of association and dissociation; the rotation speed was 400 rpm, and the temperature was 30° C. The KD values were analyzed by ForteBio analysis software.
On the technique in general: BLI is a label-free optical method that tracks binding on a fibre tip over time.

Test [4] concerns the target T1, human VEGF C. Description: BLI (ForteBio), monovalent binding, 30 C. As for the experimental part: as §2, §3
Test [5] concerns the target T1, human VEGF C. Put plainly: ELISA blocking: VEGFC-biotin captured on streptavidin plate; blocked receptor VEGFR3-Fc (0.2 ug/mL), detected with anti-human Fc-HRP, OD450. As for the experimental part:
as §1
The source holds these as a separate data set.

Test [6] concerns the target T1, human VEGF C. Described as above. As for the experimental part: as §1
This is another data set of the same source.

For test [7], the target named is T1, human VEGF C. Description: BLI (ForteBio), bivalent binding, 30 C; * beyond the ForteBio detection limit. As for the experimental part:
as §2, §3

Test [8] concerns the target T1, human VEGF C. Put plainly: BLI (ForteBio), bivalent binding, 30 C; * beyond the ForteBio detection limit; bivalent binding, ForteBio; kdis at the detection limit. As for the experimental part: as §2, §3

Consider OPT-302-His, for which the IC50 (usually the point on the concentration scale where inhibition reaches its midpoint) with human VEGF C [1] is 0.0118 µg/mL.

B1: LA63G12 anti-VEGF C VHH antibody (VHH)
VHH: QLQLVESGGGLVQPGGSLRLSCAASGSSFSPYAMGWYRQAPGKQRELVAATTSGGSTLYADSVKGRFTISRDNAKNTVYLQMNSLKPEDTAVYYCYMHWRGSDPENYWGQGTQVTVSS
notes: The prokaryotic product was purified on Ni Sepharose
On to B1, for which the IC50 amounted to 0.159 µg/mL with human VEGF C [1], 0.371 µg/mL in the test with human VEGF C [2], 0.342 µg/mL in the test with human VEGF C [5] and 0.125 µg/mL with human VEGF C [6]. In addition, the Kd with human VEGF C [3] was 0.656 nM; in the test with human VEGF C [4], 16.4 nM. For the same molecule, the kon (usually a measure of how fast the partners come together) with human VEGF C [3] stood at 305000 M⁻¹ s⁻¹; with human VEGF C [4], 46500 M⁻¹ s⁻¹. Moreover, the koff (usually a measure of how fast the partners let go of each other) is 0.000761 s⁻¹ with human VEGF C [4] and at most 0.0002 s⁻¹ with human VEGF C [7].

B2: LA49G9 anti-VEGF C VHH antibody (VHH)
VHH: QLQLVESGGGLVQPGGSLRLSCAASGSMFSMYAMGWYRQAPGKQRELVAATTSGGSTLYADSVKGRFTISRDNAENTVYLQMNSLKPEDTAVYYCYTYWRGSDPENYWGRGTQVTVSS
notes: as for B1
Turning to B2, the IC50 was determined as 0.236 µg/mL in the test with human VEGF C [1], 0.352 µg/mL with human VEGF C [2], 0.151 µg/mL in the test with human VEGF C [5] and 0.0815 µg/mL with human VEGF C [6]. For the same molecule, the Kd with human VEGF C [3] amounted to 0.613 nM; with human VEGF C [4], 10 nM. Besides, the kon with human VEGF C [3] is 326000 M⁻¹ s⁻¹; with human VEGF C [4] it was 54300 M⁻¹ s⁻¹. Besides, the koff is 0.000544 s⁻¹ with human VEGF C [4] and at most 0.0002 s⁻¹ in the test with human VEGF C [8].

B3: am63G12-14B11 affinity-matured humanized anti-VEGF C VHH antibody (VHH)
VHH: EVQLVESGGGLVQPGGSLRLSCAASGSSFSPYAMGWYRQAPGKQRELVSATSEGGFTLYADSVKGRFTISRDNSKNTVYLQMNSLRAEDTAVYYCYMHWRGSDPENYWGQGTQVTVSS
notes: also called am63G12.1-14B11
In the test with human VEGF C [4], B3 returned a Kd of 6.21 nM, a koff of 0.000343 s⁻¹ and a kon of 55300 M⁻¹ s⁻¹. The same molecule showed an IC50 in the test with human VEGF C [5] of 0.0191 µg/mL.

B4: LA49G9.2 humanized anti-VEGF C VHH-Fc antibody (Fc fusion)
chain: EVQLVESGGGLVQPGGSLRLSCAASGSMFSMYAMGWYRQAPGKQRELVAATTSGGSTLYADSVKGRFTISRDNSKNTLYLQMNSLRAEDTAVYYCYTYWRGSDPENYWGQGTQVTVSS
notes: not shown: Fc part (and any hinge or linker) of the dimerized VHH-Fc antibody
On to B4, for which, in the test with human VEGF C [3], the Kd was at most 0.645 nM and the kon is 310000 M⁻¹ s⁻¹. The molecule also returned a koff with human VEGF C [7] of at most 0.0002 s⁻¹.

B5: LA63G12.1 humanized anti-VEGF C VHH-Fc antibody (Fc fusion)
chain: EVQLVESGGGLVQPGGSLRLSCAASGSSFSPYAMGWYRQAPGKQRELVSATTSGGSTLYADSVKGRFTISRDNSKNTVYLQMNSLRAEDTAVYYCYMHWRGSDPENYWGQGTQVTVSS
notes: as for B4
Consider B5, for which, in the test with human VEGF C [3], the Kd was at most 0.622 nM and the kon was 322000 M⁻¹ s⁻¹. The molecule further gave an IC50 with human VEGF C [5] of 0.492 µg/mL. The molecule also displayed an IC50 with human VEGF C [6] of 0.182 µg/mL. Moreover, the koff with human VEGF C [7] was at most 0.0002 s⁻¹.

B6: am63G12-5G8-18B9 affinity-matured humanized anti-VEGF C VHH antibody (VHH)
VHH: EVQLVESGGGLVQPGGSLRLSCAASGSSFSPYAMGWYRQAPGKQRELVSATSSGGFTLYADSVKGRFTISRDNSKNTVYLQMNSLRAEDTAVYYCYTYYREYDPEMYWGQGTQVTVSS
notes: also called Am63G2-5G8-18B9; am63G12.1-5G8-18B9
In the test with human VEGF C [4], B6 displayed a Kd of 5.7 nM, a koff of 0.00036 s⁻¹ and a kon of 63100 M⁻¹ s⁻¹. The molecule also gave an IC50 with human VEGF C [6] of 0.0215 µg/mL.
